Data taken from article PMC12102759 (2025).

B1: ICA1L peptide 451-466 (Islet cell autoantigen 1-like protein), 16-mer library wild type / NSP16 (ORF1ab Nsp16, residues 6799-7088) (parent complex)
chain 1: QDMSAWFNLFADLDPL
chain 2: SSQAWQPGVAMPNLYKMQRMLLEKCDLQNYGDSATLPKGIMMNVAKYTQLCQYLNTLTLAVPYNMRVIHFGAGSDKGVAPGTAVLRQWLPTGTLLVDSDLNDFVSDADSTLIGDCATVHTANKWDLIISDMYDPKTKNVTKENDSKEGFFTYICGFIQQKLALGGSVAIKITEHSWNADLYKLMGHFAWWTAFVTNVNASSSEAFLIGCNYLGKPREQIDGYVMHANYIFWRNTNPIQLSSYSLFDMSKFPLKLRGTAVMSLKEGQINDMILSLLSKGRLIIRENNRVVI
B2: NOTCH4 peptide 1606-1621 (Neurogenic locus notch homolog protein 4), 16-mer library wild type / NSP9 (ORF1ab Nsp9, residues 4141-4253) (parent complex)
chain 1: QGAWLGAPEPWEPLLD
chain 2: NNELSPVALRQMSCAAGTTQTACTDDNALAYYNTTKGGRFVLALLSDLQDLKWARFPKSDGTGTIYTELEPPCRFVTDTPKGPKVKYLYFIKGLNNLNRGMVLGSLAATVRLQ

Variants of: B1
Assay: bait immobilised on MaxiSorp plates (10 µg), library pre-cleared on GST, 2 h binding at 4 °C, five washes; one round per day, days 1-4; value from days 2 and 3

Going from chain 1 QDMSAWFNLFADLPPL [chain 1 D14P] to chain 1 QDMSAWFNLFADLEPL [chain 1 D14E], the screen value rises from 0.000203 average fractional NGS count over selection days 2 and 3 (reads of this peptide / all reads for the bait, averaged over … to 0.00108 average fractional NGS count over selection days 2 and 3 (reads of this peptide / all reads for the bait, averaged over ….

Compared with chain 1 QDMSAWFGLFADLDPL [chain 1 N8G], chain 1 QDMSAWFTLFADLDPL [chain 1 N8T] is lower in screen value: 0.000503 average fractional NGS count over selection days 2 and 3 (reads of this peptide / all reads for the bait, averaged over … for the first, 0.000466 average fractional NGS count over selection days 2 and 3 (reads of this peptide / all reads for the bait, averaged over … for the second.

First: chain 1 QDMSAWFHLFADLDPL [chain 1 N8H]
Second: chain 1 QDMTAWFNLFADLDPL [chain 1 S4T]
The screen value of the first is higher: 0.00331 average fractional NGS count over selection days 2 and 3 (reads of this peptide / all reads for the bait, averaged over … for the first, 0.00139 average fractional NGS count over selection days 2 and 3 (reads of this peptide / all reads for the bait, averaged over … for the second.

Going from chain 1 QDMSAWFNLFGDLDPL [chain 1 A11G] to chain 1 QDMSAWFNMFADLDPL [chain 1 L9M], the screen value rises from 9.42e-05 average fractional NGS count over selection days 2 and 3 (reads of this peptide / all reads for the bait, averaged over … to 0.111 average fractional NGS count over selection days 2 and 3 (reads of this peptide / all reads for the bait, averaged over ….

Compared with chain 1 QDMSTWFNLFADLDPL [chain 1 A5T], chain 1 QDMSAWWNLFADLDPL [chain 1 F7W] is lower in screen value: 0.00049 average fractional NGS count over selection days 2 and 3 (reads of this peptide / all reads for the bait, averaged over … for the first, 0.000183 average fractional NGS count over selection days 2 and 3 (reads of this peptide / all reads for the bait, averaged over … for the second.

First: chain 1 QDMSAWLNLFADLDPL [chain 1 F7L]
Second: chain 1 QSMSAWFNLFADLDPL [chain 1 D2S]
The screen value of the first is higher: 0.000815 average fractional NGS count over selection days 2 and 3 (reads of this peptide / all reads for the bait, averaged over … for the first, 0.000218 average fractional NGS count over selection days 2 and 3 (reads of this peptide / all reads for the bait, averaged over … for the second.

First: chain 1 QDMSAWFNLFADLDPW [chain 1 L16W]
Second: chain 1 QDMSAWFNLFADLDPY [chain 1 L16Y]
The screen value of the first is lower: 0.000423 average fractional NGS count over selection days 2 and 3 (reads of this peptide / all reads for the bait, averaged over … for the first, 0.00657 average fractional NGS count over selection days 2 and 3 (reads of this peptide / all reads for the bait, averaged over … for the second.

Going from chain 1 QDMSAWFNLFADLDPR [chain 1 L16R] to chain 1 QDMSAWFNLFADLDPV [chain 1 L16V], the screen value falls from 0.000401 average fractional NGS count over selection days 2 and 3 (reads of this peptide / all reads for the bait, averaged over … to 0.000224 average fractional NGS count over selection days 2 and 3 (reads of this peptide / all reads for the bait, averaged over ….

Compared with chain 1 QDMSAWFNLFADLDPM [chain 1 L16M], chain 1 QDMSAWFNLFADLDPT [chain 1 L16T] is lower in screen value: 0.0149 average fractional NGS count over selection days 2 and 3 (reads of this peptide / all reads for the bait, averaged over … for the first, 0.000115 average fractional NGS count over selection days 2 and 3 (reads of this peptide / all reads for the bait, averaged over … for the second.

Going from chain 1 QDMSAWFNLFADLDTL [chain 1 P15T] to chain 1 QDMSAWFNLFADLDQL [chain 1 P15Q], the screen value falls from 0.00148 average fractional NGS count over selection days 2 and 3 (reads of this peptide / all reads for the bait, averaged over … to 0.000173 average fractional NGS count over selection days 2 and 3 (reads of this peptide / all reads for the bait, averaged over ….

Compared with chain 1 QDMSAWFNLFADLDVL [chain 1 P15V], chain 1 QDMSAWFNLFADLDNL [chain 1 P15N] is lower in screen value: 0.000993 average fractional NGS count over selection days 2 and 3 (reads of this peptide / all reads for the bait, averaged over … for the first, 0.000142 average fractional NGS count over selection days 2 and 3 (reads of this peptide / all reads for the bait, averaged over … for the second.

Going from chain 1 QDMSAWFNLFADLDGL [chain 1 P15G] to chain 1 QDMSAWFNLFAYLDPL [chain 1 D12Y], the screen value falls from 0.000662 average fractional NGS count over selection days 2 and 3 (reads of this peptide / all reads for the bait, averaged over … to 0.000481 average fractional NGS count over selection days 2 and 3 (reads of this peptide / all reads for the bait, averaged over ….

Going from chain 1 QDMSAWFNLFAHLDPL [chain 1 D12H] to chain 1 QDMSAWFNLFAWLDPL [chain 1 D12W], the screen value falls from 0.0543 average fractional NGS count over selection days 2 and 3 (reads of this peptide / all reads for the bait, averaged over … to 0.00015 average fractional NGS count over selection days 2 and 3 (reads of this peptide / all reads for the bait, averaged over ….

First: chain 1 QDMSAWFNLFADWDPL [chain 1 L13W]
Second: chain 1 QDMSAWFNLFADFDPL [chain 1 L13F]
The screen value of the first is higher: 0.0001 average fractional NGS count over selection days 2 and 3 (reads of this peptide / all reads for the bait, averaged over … for the first, 8.42e-05 average fractional NGS count over selection days 2 and 3 (reads of this peptide / all reads for the bait, averaged over … for the second.

Going from chain 1 QDMSAWFNLFADMDPL [chain 1 L13M] to chain 1 QDISAWFNLFADLDPL [chain 1 M3I], the screen value falls from 0.00451 average fractional NGS count over selection days 2 and 3 (reads of this peptide / all reads for the bait, averaged over … to 0.00221 average fractional NGS count over selection days 2 and 3 (reads of this peptide / all reads for the bait, averaged over ….

Variants of: B2
Assay: as above

Compared with chain 1 QGAWLGATEPWEPLLD [chain 1 P8T], chain 1 QGAWLGAWEPWEPLLD [chain 1 P8W] is lower in screen value: 0.001 average fractional NGS count over selection days 2 and 3 (reads of this peptide / all reads for the bait, averaged over … for the first, 0.000478 average fractional NGS count over selection days 2 and 3 (reads of this peptide / all reads for the bait, averaged over … for the second.

Compared with chain 1 QGAWLGADEPWEPLLD [chain 1 P8D], chain 1 QGAWLGAYEPWEPLLD [chain 1 P8Y] is higher in screen value: 0.000161 average fractional NGS count over selection days 2 and 3 (reads of this peptide / all reads for the bait, averaged over … for the first, 0.000389 average fractional NGS count over selection days 2 and 3 (reads of this peptide / all reads for the bait, averaged over … for the second.

Compared with chain 1 QGAWLGAPEPGEPLLD [chain 1 W11G], chain 1 QGAWLGAPEPFEPLLD [chain 1 W11F] is lower in screen value: 0.0061 average fractional NGS count over selection days 2 and 3 (reads of this peptide / all reads for the bait, averaged over … for the first, 0.0024 average fractional NGS count over selection days 2 and 3 (reads of this peptide / all reads for the bait, averaged over … for the second.

First: chain 1 QGAWLGAPMPWEPLLD [chain 1 E9M]
Second: chain 1 QGAWLGAPFPWEPLLD [chain 1 E9F]
The screen value of the first is higher: 0.00679 average fractional NGS count over selection days 2 and 3 (reads of this peptide / all reads for the bait, averaged over … for the first, 0.000135 average fractional NGS count over selection days 2 and 3 (reads of this peptide / all reads for the bait, averaged over … for the second.

Going from chain 1 QGAWLGAPSPWEPLLD [chain 1 E9S] to chain 1 QGAWLGAPEPWEPLED [chain 1 L15E], the screen value falls from 0.00294 average fractional NGS count over selection days 2 and 3 (reads of this peptide / all reads for the bait, averaged over … to 0.00221 average fractional NGS count over selection days 2 and 3 (reads of this peptide / all reads for the bait, averaged over ….

Going from chain 1 QGAWLGAPEPWEPLMD [chain 1 L15M] to chain 1 QGAWLGAPEPWEPLSD [chain 1 L15S], the screen value rises from 0.000609 average fractional NGS count over selection days 2 and 3 (reads of this peptide / all reads for the bait, averaged over … to 0.00194 average fractional NGS count over selection days 2 and 3 (reads of this peptide / all reads for the bait, averaged over ….

Going from chain 1 QGAWLGMPEPWEPLLD [chain 1 A7M] to chain 1 QGAWLGFPEPWEPLLD [chain 1 A7F], the screen value falls from 0.000666 average fractional NGS count over selection days 2 and 3 (reads of this peptide / all reads for the bait, averaged over … to 0.000134 average fractional NGS count over selection days 2 and 3 (reads of this peptide / all reads for the bait, averaged over ….

First: chain 1 QGAWLGNPEPWEPLLD [chain 1 A7N]
Second: chain 1 QGAWFGAPEPWEPLLD [chain 1 L5F]
The screen value of the first is higher: 0.00161 average fractional NGS count over selection days 2 and 3 (reads of this peptide / all reads for the bait, averaged over … for the first, 0.000119 average fractional NGS count over selection days 2 and 3 (reads of this peptide / all reads for the bait, averaged over … for the second.

First: chain 1 QGAWLGAPETWEPLLD [chain 1 P10T]
Second: chain 1 QGAWLGAPEPWEPKLD [chain 1 L14K]
The screen value of the first is lower: 0.00164 average fractional NGS count over selection days 2 and 3 (reads of this peptide / all reads for the bait, averaged over … for the first, 0.00411 average fractional NGS count over selection days 2 and 3 (reads of this peptide / all reads for the bait, averaged over … for the second.

Compared with chain 1 QGAWLGAPEPWEPRLD [chain 1 L14R], chain 1 QGAWLGAPEPWNPLLD [chain 1 E12N] is higher in screen value: 0.000211 average fractional NGS count over selection days 2 and 3 (reads of this peptide / all reads for the bait, averaged over … for the first, 0.00209 average fractional NGS count over selection days 2 and 3 (reads of this peptide / all reads for the bait, averaged over … for the second.

Compared with chain 1 QGAWLGAPEPWVPLLD [chain 1 E12V], chain 1 QGAWLGAPEPWKPLLD [chain 1 E12K] is lower in screen value: 0.00994 average fractional NGS count over selection days 2 and 3 (reads of this peptide / all reads for the bait, averaged over … for the first, 0.00114 average fractional NGS count over selection days 2 and 3 (reads of this peptide / all reads for the bait, averaged over … for the second.

First: chain 1 QGAWLGAPEPWMPLLD [chain 1 E12M]
Second: chain 1 QGAWLGAPEPWESLLD [chain 1 P13S]
The screen value of the first is higher: 0.00442 average fractional NGS count over selection days 2 and 3 (reads of this peptide / all reads for the bait, averaged over … for the first, 0.000244 average fractional NGS count over selection days 2 and 3 (reads of this peptide / all reads for the bait, averaged over … for the second.

Compared with chain 1 QGAWLGAPEPWETLLD [chain 1 P13T], chain 1 QGAWLGAPEPWEDLLD [chain 1 P13D] is higher in screen value: 0.000368 average fractional NGS count over selection days 2 and 3 (reads of this peptide / all reads for the bait, averaged over … for the first, 0.00132 average fractional NGS count over selection days 2 and 3 (reads of this peptide / all reads for the bait, averaged over … for the second.
